# Laboratory results from publication PMC3752660.
# Biological target: His6-Rv3208 (FasR from M. tuberculosis) (M. tuberculosis H37Rv)
# Test: SEC
substance,measurement,value
His6-Rv3208 (FasR from M. tuberculosis) (natural protein),stoichiometry N,2
